Assay results: patent US20160200782A1 (MOERAE MATRIX, published 2016)

What was measured:
Assay in all cases: cell-based or functional assay
TAK1(h) = target: T1, TAK1(h) (human, UniProt O43318 1-303, limits assumed)
T1 sequence (looked up): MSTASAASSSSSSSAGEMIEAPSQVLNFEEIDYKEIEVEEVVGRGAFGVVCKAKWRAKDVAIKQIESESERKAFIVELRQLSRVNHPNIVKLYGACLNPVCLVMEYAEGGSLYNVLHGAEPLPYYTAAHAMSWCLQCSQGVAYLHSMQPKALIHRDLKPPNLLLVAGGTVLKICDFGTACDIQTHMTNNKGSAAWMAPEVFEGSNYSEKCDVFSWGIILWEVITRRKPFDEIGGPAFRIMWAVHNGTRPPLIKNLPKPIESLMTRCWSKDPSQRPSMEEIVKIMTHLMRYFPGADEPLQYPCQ

SAPK4(h) = target: T2, SAPK4(h) (human, UniProt O15264 1-365)
T2 sequence (looked up): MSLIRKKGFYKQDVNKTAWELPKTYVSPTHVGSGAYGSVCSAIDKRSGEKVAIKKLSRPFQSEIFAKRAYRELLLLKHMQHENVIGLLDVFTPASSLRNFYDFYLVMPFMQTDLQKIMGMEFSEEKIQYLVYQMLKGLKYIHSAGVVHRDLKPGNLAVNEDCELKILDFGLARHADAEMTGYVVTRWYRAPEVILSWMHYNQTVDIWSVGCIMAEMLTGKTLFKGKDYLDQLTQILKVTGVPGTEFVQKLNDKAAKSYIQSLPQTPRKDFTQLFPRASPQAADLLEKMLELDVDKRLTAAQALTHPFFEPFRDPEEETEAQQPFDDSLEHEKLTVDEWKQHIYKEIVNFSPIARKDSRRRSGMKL

BRK(h) = BRK(h) (human, UniProt Q13882 1-451, limits assumed)
TAO2(h) = target: T3, TAO2(h) (human, UniProt Q9UL54 1-314, limits assumed)
T3 sequence (looked up): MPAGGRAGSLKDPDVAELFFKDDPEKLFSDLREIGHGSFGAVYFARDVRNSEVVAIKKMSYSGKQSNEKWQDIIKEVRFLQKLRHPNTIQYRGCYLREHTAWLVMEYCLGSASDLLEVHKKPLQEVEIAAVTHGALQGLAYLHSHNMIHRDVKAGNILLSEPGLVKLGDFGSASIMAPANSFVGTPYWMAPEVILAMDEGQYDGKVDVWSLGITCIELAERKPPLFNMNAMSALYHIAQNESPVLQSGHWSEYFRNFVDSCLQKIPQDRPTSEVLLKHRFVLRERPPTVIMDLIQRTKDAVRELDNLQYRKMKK

FGFR3(h) = FGFR3(h) (human, UniProt P22607 397-806)
Sequence of FGFR3(h) (P22607 397-806 limits assumed): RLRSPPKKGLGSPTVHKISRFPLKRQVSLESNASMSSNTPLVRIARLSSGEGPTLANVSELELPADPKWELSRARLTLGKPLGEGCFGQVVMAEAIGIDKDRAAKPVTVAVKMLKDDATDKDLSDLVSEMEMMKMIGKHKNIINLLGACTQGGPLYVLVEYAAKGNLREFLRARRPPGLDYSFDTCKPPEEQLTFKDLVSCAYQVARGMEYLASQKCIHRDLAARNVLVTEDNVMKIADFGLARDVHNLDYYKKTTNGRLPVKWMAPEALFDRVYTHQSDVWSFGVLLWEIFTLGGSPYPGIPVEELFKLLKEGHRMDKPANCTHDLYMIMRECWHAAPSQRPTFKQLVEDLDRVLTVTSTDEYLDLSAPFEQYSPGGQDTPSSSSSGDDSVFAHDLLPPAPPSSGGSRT

TAO3(h) = target: T4, TAO3(h) (human, UniProt Q9H2K8 1-315, limits assumed)
T4 sequence (looked up): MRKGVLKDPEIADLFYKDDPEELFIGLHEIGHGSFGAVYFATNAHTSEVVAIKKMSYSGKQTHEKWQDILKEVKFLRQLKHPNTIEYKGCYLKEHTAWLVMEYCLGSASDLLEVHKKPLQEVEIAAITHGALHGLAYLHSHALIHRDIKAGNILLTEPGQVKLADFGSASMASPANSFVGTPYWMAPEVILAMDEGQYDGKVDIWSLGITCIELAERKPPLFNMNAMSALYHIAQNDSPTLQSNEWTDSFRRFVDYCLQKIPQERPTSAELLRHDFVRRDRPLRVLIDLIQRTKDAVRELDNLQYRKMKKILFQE

CDK3/cyclinE(h) = CDK3/cyclinE(h) (human, UniProt Q00526 1-305; Q00526 1-305)
Sequence of CDK3/cyclinE(h) (Q00526 whole entry, chain 1 of 2): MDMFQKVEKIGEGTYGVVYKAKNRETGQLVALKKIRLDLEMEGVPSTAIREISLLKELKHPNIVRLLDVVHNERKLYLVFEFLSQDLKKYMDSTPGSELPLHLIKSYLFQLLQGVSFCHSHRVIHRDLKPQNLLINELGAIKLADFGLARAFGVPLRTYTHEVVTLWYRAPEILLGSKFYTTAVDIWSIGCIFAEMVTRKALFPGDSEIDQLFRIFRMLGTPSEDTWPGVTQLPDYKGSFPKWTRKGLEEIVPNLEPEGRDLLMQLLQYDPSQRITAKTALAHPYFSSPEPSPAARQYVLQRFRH
Sequence of CDK3/cyclinE(h) (Q00526 whole entry, chain 2 of 2): as the sequence (Q00526 whole entry, chain 1 of 2) above

STK33(h) = STK33(h) (human, UniProt Q9BYT3 1-514, limits assumed)
Sequence of STK33(h) (Q9BYT3 whole entry): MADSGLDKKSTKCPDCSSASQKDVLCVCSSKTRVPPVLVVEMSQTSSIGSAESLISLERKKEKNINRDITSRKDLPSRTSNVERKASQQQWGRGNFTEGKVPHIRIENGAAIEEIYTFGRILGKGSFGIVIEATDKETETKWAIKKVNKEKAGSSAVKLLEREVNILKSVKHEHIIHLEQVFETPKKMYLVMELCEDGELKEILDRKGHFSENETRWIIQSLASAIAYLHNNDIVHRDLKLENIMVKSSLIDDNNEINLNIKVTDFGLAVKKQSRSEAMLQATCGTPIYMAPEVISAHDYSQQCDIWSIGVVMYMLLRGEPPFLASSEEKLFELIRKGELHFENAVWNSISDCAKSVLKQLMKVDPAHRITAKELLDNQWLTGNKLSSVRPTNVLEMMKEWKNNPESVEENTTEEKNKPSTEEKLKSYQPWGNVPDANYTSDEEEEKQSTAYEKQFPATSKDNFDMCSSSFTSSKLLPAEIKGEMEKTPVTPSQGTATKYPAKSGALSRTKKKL

SAPK3(h) = target: T5, SAPK3(h) (human, UniProt P53778 1-367)
T5 sequence (looked up): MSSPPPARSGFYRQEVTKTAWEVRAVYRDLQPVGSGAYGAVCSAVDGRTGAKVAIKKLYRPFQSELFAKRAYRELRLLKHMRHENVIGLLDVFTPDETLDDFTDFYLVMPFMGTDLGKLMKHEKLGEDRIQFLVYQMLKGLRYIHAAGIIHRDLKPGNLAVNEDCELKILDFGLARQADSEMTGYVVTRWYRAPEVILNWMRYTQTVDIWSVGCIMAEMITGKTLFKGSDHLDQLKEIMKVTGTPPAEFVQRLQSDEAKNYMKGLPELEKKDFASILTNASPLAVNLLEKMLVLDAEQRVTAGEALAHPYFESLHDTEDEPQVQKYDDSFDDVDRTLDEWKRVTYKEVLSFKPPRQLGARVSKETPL

Yes(h) = Yes(h) (human, UniProt P07947 1-543, limits assumed)
Sequence of Yes(h) (P07947 whole entry): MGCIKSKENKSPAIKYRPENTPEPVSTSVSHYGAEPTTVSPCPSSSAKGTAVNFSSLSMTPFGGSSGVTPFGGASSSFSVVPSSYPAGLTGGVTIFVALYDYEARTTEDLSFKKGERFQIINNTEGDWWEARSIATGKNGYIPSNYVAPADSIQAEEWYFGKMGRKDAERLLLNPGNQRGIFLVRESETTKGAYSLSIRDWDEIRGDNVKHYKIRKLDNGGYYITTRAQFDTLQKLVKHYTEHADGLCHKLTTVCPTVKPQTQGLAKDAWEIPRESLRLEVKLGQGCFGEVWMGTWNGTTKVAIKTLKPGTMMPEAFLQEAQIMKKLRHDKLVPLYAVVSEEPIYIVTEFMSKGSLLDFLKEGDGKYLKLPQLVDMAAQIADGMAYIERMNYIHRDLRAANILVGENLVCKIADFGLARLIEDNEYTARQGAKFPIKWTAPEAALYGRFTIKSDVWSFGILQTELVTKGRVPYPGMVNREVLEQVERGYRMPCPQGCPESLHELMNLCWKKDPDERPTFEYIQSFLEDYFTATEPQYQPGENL

Fes(h) = Fes(h) (human, UniProt P07332 1-822, limits assumed)
Sequence of Fes(h) (P07332 whole entry): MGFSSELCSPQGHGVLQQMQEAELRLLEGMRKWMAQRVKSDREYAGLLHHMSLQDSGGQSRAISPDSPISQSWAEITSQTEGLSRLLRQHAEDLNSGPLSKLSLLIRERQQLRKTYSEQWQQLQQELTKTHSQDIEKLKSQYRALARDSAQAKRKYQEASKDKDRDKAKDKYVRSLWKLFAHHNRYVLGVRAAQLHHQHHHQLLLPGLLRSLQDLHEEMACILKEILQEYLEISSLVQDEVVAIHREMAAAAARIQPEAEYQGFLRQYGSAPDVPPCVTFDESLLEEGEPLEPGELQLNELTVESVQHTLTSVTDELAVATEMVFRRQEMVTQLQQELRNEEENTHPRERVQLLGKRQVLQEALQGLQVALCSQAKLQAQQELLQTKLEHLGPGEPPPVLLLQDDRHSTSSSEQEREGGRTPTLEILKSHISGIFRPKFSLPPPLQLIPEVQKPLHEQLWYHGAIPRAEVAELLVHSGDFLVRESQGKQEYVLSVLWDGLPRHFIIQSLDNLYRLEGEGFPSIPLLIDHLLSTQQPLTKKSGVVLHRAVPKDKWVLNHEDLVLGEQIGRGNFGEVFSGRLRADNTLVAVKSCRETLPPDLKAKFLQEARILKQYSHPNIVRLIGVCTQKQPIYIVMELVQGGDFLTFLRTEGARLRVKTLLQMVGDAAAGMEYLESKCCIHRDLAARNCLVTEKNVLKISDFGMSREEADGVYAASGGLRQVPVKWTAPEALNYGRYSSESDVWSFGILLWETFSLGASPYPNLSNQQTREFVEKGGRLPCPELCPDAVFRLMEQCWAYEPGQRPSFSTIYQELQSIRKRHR

GSK3α(h) = GSK3α(h) (human, UniProt P49840 1-483)
Sequence of GSK3α(h) (P49840 whole entry): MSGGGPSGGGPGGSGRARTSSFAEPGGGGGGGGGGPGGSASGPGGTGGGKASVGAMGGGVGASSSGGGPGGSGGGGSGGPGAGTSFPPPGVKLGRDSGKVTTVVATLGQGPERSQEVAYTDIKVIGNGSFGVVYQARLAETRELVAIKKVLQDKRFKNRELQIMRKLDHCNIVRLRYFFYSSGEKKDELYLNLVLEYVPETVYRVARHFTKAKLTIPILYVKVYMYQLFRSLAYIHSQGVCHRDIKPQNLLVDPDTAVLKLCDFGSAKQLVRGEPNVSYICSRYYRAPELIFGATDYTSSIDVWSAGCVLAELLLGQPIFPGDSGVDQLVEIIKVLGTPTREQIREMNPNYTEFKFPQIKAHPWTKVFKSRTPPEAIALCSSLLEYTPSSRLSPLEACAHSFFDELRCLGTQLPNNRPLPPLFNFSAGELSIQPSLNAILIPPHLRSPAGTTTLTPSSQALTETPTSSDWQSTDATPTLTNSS

CDK5/p35(h) = CDK5/p35(h) (human, UniProt Q00535 1-292; Q15078 1-307)
MKK6(h) = target: T6, MKK6(h) (human, UniProt P52564 1-334, limits assumed)
T6 sequence (looked up): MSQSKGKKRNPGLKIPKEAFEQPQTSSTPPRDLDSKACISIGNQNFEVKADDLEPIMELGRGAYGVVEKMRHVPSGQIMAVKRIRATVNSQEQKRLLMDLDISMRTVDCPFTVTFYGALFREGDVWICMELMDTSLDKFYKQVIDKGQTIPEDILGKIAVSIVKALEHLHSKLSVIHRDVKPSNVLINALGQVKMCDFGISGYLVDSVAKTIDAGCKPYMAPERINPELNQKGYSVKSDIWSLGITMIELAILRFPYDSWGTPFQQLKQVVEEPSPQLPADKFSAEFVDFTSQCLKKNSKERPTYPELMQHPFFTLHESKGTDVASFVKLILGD

BTK(R28H)(h) = BTK(R28H)(h) (human, UniProt Q06187 1-659)
Sequence of BTK(R28H)(h) (Q06187 whole entry R28H): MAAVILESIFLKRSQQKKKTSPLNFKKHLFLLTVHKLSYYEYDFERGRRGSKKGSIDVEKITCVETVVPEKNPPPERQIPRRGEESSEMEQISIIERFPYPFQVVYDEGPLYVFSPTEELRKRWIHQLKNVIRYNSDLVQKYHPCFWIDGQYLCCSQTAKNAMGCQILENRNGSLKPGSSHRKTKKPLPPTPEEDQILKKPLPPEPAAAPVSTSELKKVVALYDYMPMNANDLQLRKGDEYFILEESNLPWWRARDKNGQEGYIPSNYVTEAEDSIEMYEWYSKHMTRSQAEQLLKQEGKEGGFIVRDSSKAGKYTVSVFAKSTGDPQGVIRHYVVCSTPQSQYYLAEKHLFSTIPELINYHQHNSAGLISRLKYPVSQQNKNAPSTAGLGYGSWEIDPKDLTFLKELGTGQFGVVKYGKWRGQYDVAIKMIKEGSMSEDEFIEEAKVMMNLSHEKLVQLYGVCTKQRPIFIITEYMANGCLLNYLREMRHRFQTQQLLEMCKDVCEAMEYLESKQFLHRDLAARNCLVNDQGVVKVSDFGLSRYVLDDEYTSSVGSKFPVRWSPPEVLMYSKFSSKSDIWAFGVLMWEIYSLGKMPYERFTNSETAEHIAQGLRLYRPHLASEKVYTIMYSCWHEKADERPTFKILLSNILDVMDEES

CHK2(R145W)(h) = CHK2(R145W)(h) (human, UniProt O96017 5-543, limits assumed)
Sequence of CHK2(R145W)(h) (O96017 5-543 R145W limits assumed): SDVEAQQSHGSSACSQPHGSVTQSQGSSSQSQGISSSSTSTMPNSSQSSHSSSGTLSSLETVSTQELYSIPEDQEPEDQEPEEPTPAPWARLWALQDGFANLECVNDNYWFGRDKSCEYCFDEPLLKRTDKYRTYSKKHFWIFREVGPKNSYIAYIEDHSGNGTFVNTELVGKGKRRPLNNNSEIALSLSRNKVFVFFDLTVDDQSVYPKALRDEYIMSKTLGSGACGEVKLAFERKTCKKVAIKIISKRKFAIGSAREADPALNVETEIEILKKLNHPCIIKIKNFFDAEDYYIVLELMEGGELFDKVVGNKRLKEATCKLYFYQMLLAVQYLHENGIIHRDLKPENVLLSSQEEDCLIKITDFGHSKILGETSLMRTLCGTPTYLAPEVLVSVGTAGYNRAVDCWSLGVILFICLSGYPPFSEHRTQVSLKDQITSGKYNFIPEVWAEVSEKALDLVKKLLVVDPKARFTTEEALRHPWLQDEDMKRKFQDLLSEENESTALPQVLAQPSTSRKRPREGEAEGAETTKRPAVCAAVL

KAFAKLAARLYRKALARQLGVAA [MMI-0400]
% activity (TAK1(h)): 177% | % activity (SAPK4(h)): 91% | % activity (BRK(h)): 18% | % activity (TAO2(h)): 74% | % activity (FGFR3(h)): 0% | % activity (TAO3(h)): 67% | % activity (CDK3/cyclinE(h)): 92% | % activity (STK33(h)): 52% | % activity (SAPK3(h)): 79% | % activity (Yes(h)): 14% | % activity (Fes(h)): 16% | % activity (GSK3α(h)): 164% | % activity (CDK5/p35(h)): 76% | % activity (MKK6(h)): 44% | % activity (BTK(R28H)(h)): 24% | % activity (CHK2(R145W)(h)): 31%

FAKLAARLYRKALARQLGVAA [MMI-0300]
% activity (TAK1(h)): 122% | % activity (SAPK4(h)): 96% | % activity (BRK(h)): 35% | % activity (TAO2(h)): 70% | % activity (FGFR3(h)): 102% | % activity (TAO3(h)): 77% | % activity (CDK3/cyclinE(h)): 94% | % activity (STK33(h)): 45% | % activity (SAPK3(h)): 84% | % activity (Yes(h)): 67% | % activity (Fes(h)): 20% | % activity (GSK3α(h)): 157% | % activity (CDK5/p35(h)): 79% | % activity (MKK6(h)): 48% | % activity (BTK(R28H)(h)): 74% | % activity (CHK2(R145W)(h)): 33%
